{"source": "paper PMC5009721", "key": {"[1]": {"biological_target": "T1, RNA polymerase II;TBP (TATA-binding protein);TFIIB;TFIIF (human (HeLa cells);human;human;human, UniProt P24928;P30876;P19387;O15514;P19388;P61218;P62487;P52434;P36954;P62875;P52435;P53 …, |||)", "T1 sequence (P20226 whole entry, chain 13 of 2)": "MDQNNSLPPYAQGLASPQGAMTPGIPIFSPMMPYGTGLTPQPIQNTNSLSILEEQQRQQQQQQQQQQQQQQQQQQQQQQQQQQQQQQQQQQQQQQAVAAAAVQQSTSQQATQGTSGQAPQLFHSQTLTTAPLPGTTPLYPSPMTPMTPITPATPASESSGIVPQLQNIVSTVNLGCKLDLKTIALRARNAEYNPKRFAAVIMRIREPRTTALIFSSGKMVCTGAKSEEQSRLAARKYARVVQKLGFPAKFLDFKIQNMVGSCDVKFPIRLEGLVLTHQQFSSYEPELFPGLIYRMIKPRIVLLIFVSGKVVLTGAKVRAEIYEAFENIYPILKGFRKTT", "T1 sequence (Q00403 whole entry, chain 14 of 2, further chain)": "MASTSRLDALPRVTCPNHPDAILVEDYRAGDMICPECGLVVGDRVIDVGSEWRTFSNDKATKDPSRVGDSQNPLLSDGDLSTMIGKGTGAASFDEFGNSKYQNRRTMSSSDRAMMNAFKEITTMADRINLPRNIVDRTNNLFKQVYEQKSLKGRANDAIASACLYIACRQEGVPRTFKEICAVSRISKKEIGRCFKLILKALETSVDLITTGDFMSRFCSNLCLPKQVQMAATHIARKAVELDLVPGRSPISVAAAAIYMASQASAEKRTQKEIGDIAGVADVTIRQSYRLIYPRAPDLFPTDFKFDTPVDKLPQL", "test": "EMSA"}, "RNA polymerase II [2]": {"biological_target": "T2, RNA polymerase II (human (HeLa cells), UniProt P24928;P30876;P19387;O15514;P19388;P61218;P62487;P52434;P36954;P62875;P52435;P53 …)", "test": "EMSA"}, "[3]": {"biological_target": "T1, RNA polymerase II;TBP (TATA-binding …)", "test": "single-molecule TIRF colocalization, immobilized Pol II"}, "[4]": {"biological_target": "T1, RNA polymerase II;TBP (TATA-binding …)", "test": "single-molecule TIRF colocalization, immobilized Pol II", "remark": "listed apart in the source"}, "RNA polymerase II [5]": {"biological_target": "T2, RNA polymerase II", "test": "single-molecule TIRF colocalization, immobilized Pol II"}}, "data": [{"binder": "AdML three-piece heteroduplex (-40 to +37), Cy3/Cy5, quencher (dsDNA) DNA 1: CCTGAGGTTAGTGTGAGTAGTGATTAAAGATAGTGATGAGGACGAACGCGCCCCCACCCCCTTTTATAGCCCCCCTT DNA 2: AAGGGGGGCTATAAAAGGGGGTGGGGGCGCGAAGCAGGAGTAGACTATCTTTAATCACTA DNA 3: CTCACACTAACCTCAGG", "values": [{"measurement": "binding result", "setting": "[1]", "result": "binds"}, {"measurement": "binding result", "setting": "RNA polymerase II [2]", "result": "binds"}]}, {"binder": "18 bp TATA DNA (dsDNA) DNA 1: CGTCCCTTTTATAGCCTG DNA 2: CAGGCTATAAAAGGGACG", "values": [{"measurement": "binding result", "setting": "[3]", "result": "binds"}]}, {"binder": "AdML three-piece heteroduplex (-40 to +37), Cy3/Cy5, no quencher, no biotin (dsDNA) DNA 1: CCTGAGGTTAGTGTGAGTAGTGATTAAAGATAGTGATGAGGACGAACGCGCCCCCACCCCCTTTTATAGCCCCCCTT DNA 2: AAGGGGGGCTATAAAAGGGGGTGGGGGCGCGAAGCAGGAGTAGACTATCTTTAATCACTA DNA 3: CTCACACTAACCTCAGG", "values": [{"measurement": "binding result", "setting": "[4]", "result": "binds"}, {"measurement": "binding result", "setting": "RNA polymerase II [5]", "result": "binds"}]}]}
